Assay results as given in patent US20250136687A1 (SHANDONG SIMCERE BIOPHARMACEUTICAL, published 2025).
Read-outs that look alike come from different tables or passages of the source.

Columns and labels:
[1] = target: T1, human CD3 on the cell surface (Jurkat cells, expanded human T cells, Jurkat-Lucia NFAT cells, human PBMC) (human, UniProt P07766 23-207; P04234 22-171; P09693 23-182); experiment: FACS, Jurkat cells
T1 construct: whole, on cells; Endogenous CD3 within the TCR-CD3 complex on cells (also zeta chains and TCR); the cell type is named under assay
T1 sequence (P07766 23-207, chain 1 of 3): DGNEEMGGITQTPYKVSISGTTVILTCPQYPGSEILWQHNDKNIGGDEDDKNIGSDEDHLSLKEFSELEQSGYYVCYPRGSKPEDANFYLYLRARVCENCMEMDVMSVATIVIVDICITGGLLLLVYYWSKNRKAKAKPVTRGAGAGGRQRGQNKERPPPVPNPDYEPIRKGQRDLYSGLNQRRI
T1 sequence (P04234 22-171, chain 2 of 3): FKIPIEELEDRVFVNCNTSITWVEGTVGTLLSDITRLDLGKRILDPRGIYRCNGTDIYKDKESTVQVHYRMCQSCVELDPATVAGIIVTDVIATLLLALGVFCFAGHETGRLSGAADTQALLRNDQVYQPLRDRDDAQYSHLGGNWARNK
T1 sequence (P09693 23-182, chain 3 of 3): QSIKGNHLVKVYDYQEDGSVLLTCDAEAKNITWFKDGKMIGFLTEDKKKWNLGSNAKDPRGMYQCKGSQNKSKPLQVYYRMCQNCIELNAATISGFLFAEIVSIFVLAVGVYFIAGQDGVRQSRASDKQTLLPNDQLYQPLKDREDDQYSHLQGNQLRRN
Method: Suspension cells Jurkat cells (purchased from Cell bank of Chinese Academy of Sciences) were scale-up cultured in T-175 cell culture flasks to the logarithmic growth phase, the supernatant of the medium was discarded by centrifugation, and the cell pellet was washed 2 times with PBS. After counting the cells in the previous step, the cell pellet was resuspended with [PBS+2% (w/v) FBS] blocking solution to 4×10⁶ cells/ml, and added to a 96-well FACS reaction plate at 50 μl/well, the supernatant was removed by centrifugation, detection antibodies (initial concentration of […], gradient dilution at 1:5) and an IgG negative control were added at 100 μl/well, the cells were uniformly mixed, and incubated on ice for 1 h. The cells were centrifuged and washed 3 times with a PBS buffer. […] The cells were centrifuged and washed 5 times with a PBS buffer, and FACS (FACS Canto II, purchased from BD Company) was used for detection and result analysis. Data analysis was performed by software (CellQuest) to obtain the mean fluorescence intensity (MFI) of the cells. And then software (GraphPad Prism8) was used for analysis, data fitting, and EC50 value calculation.

[2] = target: T2, cynomolgus monkey CD3 on the surface of expanded monkey T cells (cynomolgus monkey, UniProt Q95LI5 22-198; Q95LI8 22-171; Q95LI7 23-181); experiment: FACS, expanded monkey T cells
T2 construct: whole, on cells; Endogenous CD3 within the TCR-CD3 complex on T cells expanded from cynomolgus monkey PBMC
T2 sequence (Q95LI5 22-198, chain 1 of 3): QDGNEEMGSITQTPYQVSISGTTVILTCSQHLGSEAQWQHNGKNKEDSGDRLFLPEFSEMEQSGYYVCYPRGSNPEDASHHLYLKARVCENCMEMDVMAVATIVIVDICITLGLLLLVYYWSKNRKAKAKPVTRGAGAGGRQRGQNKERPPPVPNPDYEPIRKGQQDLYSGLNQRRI
T2 sequence (Q95LI8 22-171, chain 2 of 3): as the sequence (P04234 22-171, chain 2 of 3) above, with I5V, N15K, I20V, S32T, D33N, I34N, T64A, S74N, V83L, H141R counted along it
T2 sequence (Q95LI7 23-181, chain 3 of 3): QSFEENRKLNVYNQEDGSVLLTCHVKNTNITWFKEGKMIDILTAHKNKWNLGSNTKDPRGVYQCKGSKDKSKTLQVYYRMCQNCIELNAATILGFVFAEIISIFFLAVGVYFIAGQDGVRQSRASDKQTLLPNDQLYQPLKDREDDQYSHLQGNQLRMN

[3] = target: T1, human CD3 on the cell surface (Jurkat …); experiment: FACS, expanded human T cells
[4] = target: T1, human CD3 on the cell surface (Jurkat …); experiment: FACS, Jurkat cells; remark: listed apart in the source
Method: (§1) The binding of the chimeric antibodies to CD3 on the cell surface was analyzed by detecting the binding of the antibodies to Jurkat cells and human T cells. Suspension cells Jurkat cells were scale-up cultured in T-75 cell culture flasks to the logarithmic growth phase, the supernatant of the medium was discarded by centrifugation, and the cell pellet was washed 2 times with PBS for later use. The expanded human T cells were washed 2 times with PBS for later use. After counting the cells in the previous step, the cell pellet was resuspended with [PBS+2% (w/w) BSA] blocking solution to 4×10⁶ cells/ml, and added to a 96-well FACS reaction plate at 50 μl/well, and then the chimeric antibody to be tested was added at 50 μl/well, and incubated at 4° C. for 1 h. The cells were centrifuged and washed 3 times with a PBS buffer. […] The cells were centrifuged and washed 5 times with PBS, and FACS (FACS Canto™, purchased from BD Company) was used for detection and result analysis. Data analysis was performed by software (CellQuest) to obtain the mean fluorescence […] (MFI) of the cells. And then software (GraphPad Prism8) was used for analysis, data fitting, and EC50 value calculation. The same method was used to simultaneously detect the binding of the chimeric antibodies to endogenous CD3 negative cells MOLT4 cells.

[5] = target: T1, human CD3 on the cell surface (Jurkat …); experiment: FACS, expanded human T cells; remark: listed apart in the source
Method: as §1

[6] = target: T2, cynomolgus monkey CD3 on the surface of …; experiment: FACS, expanded monkey T cells; remark: listed apart in the source
Method: as §1
FACS detection and data analysis were performed on the cryopreserved monkey T cells of Example 2.4 according to the method in Example 5.1.

EC50 [1]: 450 pM
EC50 [2]: 490 pM
EC50 [3]: 2540 pM
EC50 [4]: 130 pM
MFI_Max [4]: 7020 MFI
EC50 [5]: 430 pM
MFI_Max [5]: 43100 MFI
EC50 [6]: 270 pM
MFI_Max [6]: 64700 MFI
B1: SP34-hIgG1 (antibody)
heavy: not shown
light: QAVVTQESALTTSPGETVTLTCRSSTGAVTTSNYANWVQEKPDHLFTGLIGGTNKRAPGVPARFSGSLIGDKAALTITGAQTEDEAIYFCALWYSNLWVFGGGTKLTVLRTVAAPSVFIFPPSDEQLKSGTASVVCLLNNFYPREAKVQWKVDNALQSGNSQESVTEQDSKDSTYSLSSTLTLSKADYEKHKVYACEVTHQGLSSPVTKSFNRGEC
notes: Positive control
